We go through 2 molecules from publication PMC5863373, “Characterization of association of human mitochondrial lysyl-tRNA synthetase with HIV-1 Pol and tRNA3^Lys” (BMC Biochemistry, 2018).

Test [1] has as its target T1, human mitochondrial lysyl-tRNA synthetase with a C-terminal HA-tag (human, UniProt Q15046-2).
T1 construct: also called mLysRS; mLysRS-HA; source: E. coli, purified as described [12]
Nature of the test: AlphaScreen or HTRF. Conditions: both partners purified. For orientation: In Alpha technology, singlet oxygen from a donor bead excites a nearby acceptor bead.

The target in test [2] is T2, HIV-1 integrase with a C-terminal His6 tag (HIV-1 (pNL4-3)).
T2 construct: source: High Five insect cells (baculovirus), purified (Ni-NTA, Mono S); not shown: His6, C-terminal, kept
Nature of the test: AlphaScreen or HTRF. Conditions: both partners purified.

B1: p38, scaffold protein of the multi-synthetase complex (AIMP2), His-tagged (natural protein, human, UniProt Q13155 1-320, looked up)
chain: MPMYQVKPYHGGGAPLRVELPTCMYRLPNVHGRSYGPAPGAGHVQEESNLSLQALESRQDDILKRLYELKAAVDGLSKMIQTPDADLDVTNIIQADEPTTLTTNALDLNSVLGKDYGALKDIVINANPASPPLSLLVLHRLLCEHFRVLSTVHTHSSVKSVPENLLKCFGEQNKKQPRQDYQLGFTLIWKNVPKTQMKFSIQTMCPIEGEGNIARFLFSLFGQKHNAVNATLIDSWVDIAIFQLKEGSSKEKAAVFRSMNSALGKSPWLAGNELTVADVVLWSVLQQIGGCSVTVPANVQRWMRSCENLAPFNTALKLLK
notes: also called His-tagged p38
For the molecule B1, in test [1], binding was put at a Kd of 0.5 nM.

B2: mLysRS derivative with a C-terminal deletion of 22 aminoacid residues, with a C-terminal HA-tag (domain or fragment)
chain: not shown
B2 registered a dissociation constant Kd in test [2] of 8.3 nM.

Usually Kd stands for the equilibrium constant for the complex coming apart. A high value points to weaker binding.
